# Article PMC7892824 (2021)
# Bridges are numbered along the chain shown (N, C = ends). [ ]: non-standard residue; d: D form. The star is where a group is joined. FITC = O=C1OC2(c3ccc(O)cc3Oc3cc(O)ccc32)c2ccc(NC(=S)*)cc21; S5 = C=CCCC[C@](C)(N)C(=O)O; Ahx = NCCCCCC(=O)O
# B1: FITC-BIM–SAHB, fluorescently-labeled hydrocarbon-stapled BIM–BH3 peptide (peptide)
# chain: {FITC-Ahx}-EIWIAQELR[S5]IGD[S5]FNAYYA-NH2
# modifications: staple 10-14
# SMILES: CC[C@H](C)[C@H](NC(=O)[C@H](Cc1c[nH]c2ccccc12)NC(=O)[C@@H](NC(=O)[C@H](CCC(=O)O)NC(=O)CCCCCNC(=S)Nc1ccc2c(c1)C(=O)OC21c2ccc(O)cc2Oc2cc(O)ccc21)[C@@H](C)CC)C(=O)N[C@@H](C)C(=O)N[C@@H](CCC(N)=O)C(=O)N[C@@H](CCC(=O)O)C(=O)N[C@@H](CC(C)C)C(=O)N[C@@H](CCCNC(=N)N)C(=O)N[C@@]1(C)CCCC=CCCC[C@@](C)(C(=O)N[C@@H](Cc2ccccc2)C(=O)N[C@@H](CC(N)=O)C(=O)N[C@@H](C)C(=O)N[C@@H](Cc2ccc(O)cc2)C(=O)N[C@@H](Cc2ccc(O)cc2)C(=O)N[C@@H](C)C(N)=O)NC(=O)[C@H](CC(=O)O)NC(=O)CNC(=O)[C@H]([C@@H](C)CC)NC1=O
# How the values were obtained:
# [1] = target: T1, Human full-length (1–192) wild-type BAX (human, UniProt Q07812 1-192); experiment: FP; 0 uM EO
# T1 sequence (Q07812 whole entry): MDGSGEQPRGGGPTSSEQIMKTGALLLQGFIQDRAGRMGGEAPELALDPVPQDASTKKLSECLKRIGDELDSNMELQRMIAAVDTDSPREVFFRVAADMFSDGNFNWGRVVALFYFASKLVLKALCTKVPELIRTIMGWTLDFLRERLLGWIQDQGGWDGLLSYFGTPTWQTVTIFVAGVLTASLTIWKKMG
# [2] = target: T1, Human full-length (1–192) wild-type BAX; experiment: FP; 0.5 uM EO (eltrombopag)
# [3] = target: T1, Human full-length (1–192) wild-type BAX; experiment: FP; 1 uM EO (eltrombopag)
binder,measurement,setting,value
B1,Kd,[1],0.11 µM
same,Kd,[2],0.613 µM
same,Kd,[3],> 2 µM
